The record followed here is the RNAGym collection of RNA variant scans (doi:10.7554/elife.90254).

To fix the notation:
B1: LINE1-mini (parent)
chain: GGCAGAGCUCAACACAGCGUGGCAAAGUGGCUGUGGCUAGACUGCC

In this data set the parent is B1. Briefly: self-cleavage, relative activity (ratio to wild type); higher = more cleavage; in vitro, sequencing; the parent is a self-cleaving ribozyme.
On to C8G G30U, for which the self-cleavage came to 0.2.
C8G G30C: the self-cleavage is 0.1.
Turning to C8G G30A, the self-cleavage was 0.21.
Consider C8U A39C, for which the self-cleavage worked out at 0.2.
On to C8U A39G, for which the self-cleavage came to 0.05.
In the case of C8U A39U, the self-cleavage came out at 0.09.
As for U9A A12C, the self-cleavage came to 0.03.
For U9A A12U, the self-cleavage worked out at 0.13.
Take U9A A12G: the self-cleavage was 0.05.
Take U9A G27A: the self-cleavage was determined as 0.1.
As to U9A G27U, the self-cleavage stood at 0.14.
With U9A G27C, the self-cleavage came to 0.11.
To U9A C37A belongs 0.21; to U9A C37G, 0.11.
Take U9A C37U: the self-cleavage was found to be 0.12.
Regarding U9C A11C, the self-cleavage turned out to be 0.02.
U9C A11G: the self-cleavage came to 0.02.
Regarding U9A G40A, the self-cleavage was determined as 0.19.
As to U9A G40U, the self-cleavage is 0.1.
For the variant U9A G40C, the self-cleavage was found to be 0.08.
For C8U C13G, the self-cleavage stood at 0.29.
To C8U C13A belongs 0.5.
For the variant C8U C13U, the self-cleavage was 0.81.
Consider C8G U38A, for which the self-cleavage is 0.06.
With C8G U38C, the self-cleavage stood at 0.05.
As for C8G U38G, the self-cleavage was 0.32.
To C8U A14G belongs 0.19; to C8U A14U, 0.09.
C8U A14C: the self-cleavage was 0.15.
On to U9A A26C, for which the self-cleavage came to 0.23.
For U9A A26G, the self-cleavage was 0.09.
Consider U9A A26U, for which the self-cleavage was 0.21.
Under C8U A26G stands 0.29; under C8U A26C, 0.21.
For the variant C8U A26U, the self-cleavage is 0.36.
To C8G G35C belongs 0.06; to C8G G35A, 0.13.
Under C8G G35U stands 0.2.
Regarding C8U C23U, the self-cleavage was 0.25.
To C8U C23A belongs 0.21; to C8U C23G, 0.29.
To C8U U32A belongs 0.1.
Regarding C8U U32C, the self-cleavage was determined as 0.12.
To C8U U32G belongs 0.1; to C8U C42G, 0.13; to C8U C42U, 0.17.
With C8U C42A, the self-cleavage was found to be 0.11.
For the variant C8G A26C, the self-cleavage stood at 0.14.
Consider C8G A26G, for which the self-cleavage turned out to be 0.07.
To C8G A26U belongs 0.11; to C8G U34G, 0.08; to C8G U34A, 0.05.
To C8G U34C belongs 0.04.
Under U9A stands 0.17; under U9C, 0.04; under C8U G30C, 0.26.
As to C8U G30A, the self-cleavage is 0.24.
Regarding C8U G30U, the self-cleavage is 0.29.
In the case of U9A C23G, the self-cleavage was 0.16.
U9A C23A: the self-cleavage turned out to be 0.14.
For the variant U9A C23U, the self-cleavage turned out to be 0.21.
Turning to C8U U20G, the self-cleavage amounted to 0.12.
In the case of C8U U20A, the self-cleavage amounted to 0.21.
As for C8U U20C, the self-cleavage came to 0.09.
To C8U C10A belongs 0.03; to C8U C10G, 0.02.
As to C8U C10U, the self-cleavage was 0.08.
On to C8G U28G, for which the self-cleavage stood at 0.06.
Under C8G U28C stands 0.46; under C8G U28A, 0.05; under U9A U34A, 0.21.
Under U9A U34G stands 0.08; under U9A U34C, 0.18.
Under C8G C13U stands 0.18.
As to C8G C13G, the self-cleavage came to 0.04.
With C8G C13A, the self-cleavage came to 0.11.
Regarding C8G A41C, the self-cleavage was found to be 0.14.
With C8G A41U, the self-cleavage turned out to be 0.25.
Under C8G A41G stands 0.13; under C8U C31G, 0.17.
Turning to C8U C31A, the self-cleavage was found to be 0.21.
With C8U C31U, the self-cleavage came to 0.14.
U9A G44U: the self-cleavage turned out to be 0.09.
In the case of U9A G44C, the self-cleavage came to 0.07.
To U9A G44A belongs 0.31.
On to U9A G22A, for which the self-cleavage was 0.14.
For U9A G22U, the self-cleavage amounted to 0.11.
Take U9A G22C: the self-cleavage worked out at 0.09.
On to C8U G35A, for which the self-cleavage was 0.32.
For C8U G35U, the self-cleavage was determined as 0.42.
Take C8U G35C: the self-cleavage was found to be 0.09.
C8G C42A: the self-cleavage amounted to 0.05.
C8G C42U: the self-cleavage came out at 0.09.
For C8G C42G, the self-cleavage stood at 0.06.
Regarding C8G U20A, the self-cleavage was determined as 0.08.
With C8G U20G, the self-cleavage is 0.09.
To C8G U20C belongs 0.08.
On to U9A U28C, for which the self-cleavage amounted to 0.1.
Turning to U9A U28G, the self-cleavage was 0.15.
As for U9A U28A, the self-cleavage is 0.17.
Regarding C8G G21U, the self-cleavage worked out at 0.13.
C8G G21A: the self-cleavage amounted to 0.32.
Take C8G G21C: the self-cleavage was determined as 0.06.
Take C8U U38A: the self-cleavage was 0.27.
In the case of C8U U38G, the self-cleavage is 0.04.
Turning to C8U U38C, the self-cleavage was 0.22.
Consider U9A A24G, for which the self-cleavage is 0.2.
U9A A24U: the self-cleavage came out at 0.33.
Consider U9A A24C, for which the self-cleavage was 0.56.
Under C8U G29A stands 0.21; under C8U G29U, 0.46; under C8U G29C, 0.1.
Turning to U9A U43C, the self-cleavage stood at 0.14.
With U9A U43A, the self-cleavage came out at 0.2.
Consider U9A U43G, for which the self-cleavage was found to be 0.28.
C8G G36A: the self-cleavage was found to be 0.18.
With C8G G36C, the self-cleavage was found to be 0.08.
To C8G G36U belongs 0.07; to U9A G21U, 0.15; to U9A G21C, 0.06.
Regarding U9A G21A, the self-cleavage amounted to 0.3.
As for U9A A41G, the self-cleavage was determined as 0.05.
For U9A A41C, the self-cleavage was found to be 0.08.
Under U9A A41U stands 0.28; under C8G G44C, 0.05.
To C8G G44U belongs 0.04; to C8G G44A, 0.04.
In the case of C8G A24G, the self-cleavage came out at 0.15.
As for C8G A24C, the self-cleavage worked out at 0.09.
For C8G A24U, the self-cleavage was 0.3.
As to C8U C45U, the self-cleavage was determined as 0.32.
Turning to C8U C45G, the self-cleavage is 0.46.
As for C8U C45A, the self-cleavage worked out at 0.21.
With C8G C31A, the self-cleavage is 0.06.
Consider C8G C31U, for which the self-cleavage stood at 0.11.
Regarding C8G C31G, the self-cleavage worked out at 0.05.
For C8G G27U, the self-cleavage came out at 0.11.
Turning to C8G G27C, the self-cleavage is 0.1.
With C8G G27A, the self-cleavage was 0.17.
In the case of C8G C46A, the self-cleavage is 0.05.
Consider C8G C46G, for which the self-cleavage was found to be 0.11.
Consider C8G C46U, for which the self-cleavage came to 0.09.
As for C8U G36U, the self-cleavage was 0.2.
To C8U G36C belongs 0.27; to C8U G36A, 0.77; to C8G C45U, 0.06.
On to C8G C45A, for which the self-cleavage came out at 0.08.
To C8G C45G belongs 0.08.
For C8G U32C, the self-cleavage turned out to be 0.06.
As for C8G U32A, the self-cleavage was found to be 0.04.
Under C8G U32G stands 0.06.
Regarding C8U A11G, the self-cleavage was determined as 0.03.
To C8U A11C belongs 0.07; to C8U A11U, 0.03.
On to U9A C31G, for which the self-cleavage stood at 0.07.
For the variant U9A C31U, the self-cleavage turned out to be 0.04.
U9A C31A: the self-cleavage was determined as 0.07.
Under C8U C46A stands 0.33; under C8U C46G, 0.2.
Take C8U C46U: the self-cleavage was 0.56.
Under C8U U28C stands 0.2.
To C8U U28A belongs 0.19; to C8U U28G, 0.13; to U9A G36C, 0.06.
On to U9A G36U, for which the self-cleavage was found to be 0.1.
Take U9A G36A: the self-cleavage came out at 0.34.
In the case of C8G C15A, the self-cleavage amounted to 0.11.
